Values quoted from earlier work in paper PMC9594772.

Target: Dll4 ECD (Rattus norvegicus) (UniProt D3ZHH1)
Sequence (D3ZHH1 28-530): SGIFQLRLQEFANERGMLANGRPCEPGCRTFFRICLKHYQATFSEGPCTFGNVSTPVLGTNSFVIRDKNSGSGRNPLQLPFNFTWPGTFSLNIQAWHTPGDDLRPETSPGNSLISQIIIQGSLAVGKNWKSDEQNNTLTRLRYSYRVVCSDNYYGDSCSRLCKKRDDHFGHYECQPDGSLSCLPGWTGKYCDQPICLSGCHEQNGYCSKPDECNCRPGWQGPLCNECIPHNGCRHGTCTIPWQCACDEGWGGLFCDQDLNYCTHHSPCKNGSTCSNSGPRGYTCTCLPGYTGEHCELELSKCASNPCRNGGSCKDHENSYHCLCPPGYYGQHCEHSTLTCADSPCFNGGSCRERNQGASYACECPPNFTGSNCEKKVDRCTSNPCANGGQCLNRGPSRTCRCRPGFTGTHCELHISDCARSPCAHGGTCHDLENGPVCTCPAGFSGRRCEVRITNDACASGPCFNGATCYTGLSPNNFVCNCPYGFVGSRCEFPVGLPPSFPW

Kd: 12.7 µM
Substance: Notch1 (from UniProt P46531)
